The text below walks through data of publication PMC9750192.

Where “and” joins values, the source holds several entries; their conditions need not be identical. Equal values may be shown once. Read-outs that look alike come from different tables or passages of the source.

Assay [1] concerns the target Taxol-stabilized microtubules enriched in tyrosinated HeLa tubulin (human (endogenous in HeLa) | not stated) (UniProt P68363). The experiment in a line: single-molecule TIRF microscopy.
Assay [2] has as its target Taxol-stabilized microtubules enriched in detyrosinated HeLa tubulin (human (endogenous in HeLa) | not stated) (UniProt P68363). The experiment in a line: single-molecule TIRF microscopy.
In assay [3] the target is Taxol-stabilized microtubules enriched in tyrosinated HeLa tubulin (human (endogenous in HeLa) | not stated) (UniProt P68363). The experiment in a line: single-molecule TIRF microscopy. The source holds these as a separate data set.
Taxol-stabilized microtubules enriched in tyrosinated HeLa tubulin (human (endogenous in HeLa) | not stated), sequence (P68363 whole entry, chain 1 of 2): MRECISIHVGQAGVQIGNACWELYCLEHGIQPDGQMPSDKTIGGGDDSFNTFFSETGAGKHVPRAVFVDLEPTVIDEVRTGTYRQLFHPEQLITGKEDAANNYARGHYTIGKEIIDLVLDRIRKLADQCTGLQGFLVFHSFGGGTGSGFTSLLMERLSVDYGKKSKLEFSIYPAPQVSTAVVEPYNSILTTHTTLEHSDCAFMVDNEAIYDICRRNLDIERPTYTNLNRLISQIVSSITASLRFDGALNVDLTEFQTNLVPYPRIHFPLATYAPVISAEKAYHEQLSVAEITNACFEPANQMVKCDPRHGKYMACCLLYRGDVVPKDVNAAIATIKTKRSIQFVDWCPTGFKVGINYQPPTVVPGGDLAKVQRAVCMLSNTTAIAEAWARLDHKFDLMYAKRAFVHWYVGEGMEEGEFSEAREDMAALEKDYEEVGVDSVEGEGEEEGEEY
Taxol-stabilized microtubules enriched in tyrosinated HeLa tubulin (human (endogenous in HeLa) | not stated), sequence (P07437 whole entry, chain 2 of 2, further chain): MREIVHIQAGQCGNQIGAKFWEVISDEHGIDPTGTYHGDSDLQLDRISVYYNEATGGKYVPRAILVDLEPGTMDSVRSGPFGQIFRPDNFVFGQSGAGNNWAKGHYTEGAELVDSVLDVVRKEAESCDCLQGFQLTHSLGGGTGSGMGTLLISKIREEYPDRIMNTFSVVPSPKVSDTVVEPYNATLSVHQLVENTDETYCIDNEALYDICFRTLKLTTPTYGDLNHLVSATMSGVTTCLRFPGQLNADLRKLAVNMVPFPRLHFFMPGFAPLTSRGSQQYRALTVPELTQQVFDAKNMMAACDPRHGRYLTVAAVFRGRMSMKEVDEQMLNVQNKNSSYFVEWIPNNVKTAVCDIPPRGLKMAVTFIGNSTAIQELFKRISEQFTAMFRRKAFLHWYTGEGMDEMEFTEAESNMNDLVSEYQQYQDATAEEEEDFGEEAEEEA
Assay [4] shares this target. Description: single-molecule TIRF microscopy. This is another data set of the same source.
The target is the same in assay [5]. The experiment in a line: single-molecule TIRF microscopy. This is another data set of the same source.
For assay [6] the target is unchanged. Description: single-molecule TIRF microscopy. The source holds these as a separate data set.
Assay [7] concerns the target Taxol-stabilized microtubules enriched in detyrosinated HeLa tubulin (human (endogenous in HeLa) | not stated) (UniProt P68363). The experiment in a line: single-molecule TIRF microscopy. This is another data set of the same source.
The target of assay [8] is GMPCPP-stabilized HeLa cell microtubules (human (endogenous in HeLa)) (UniProt P68363). Description: cryo-EM structure.
The target is the same in assay [9]. The experiment in a line: cryo-EM structure. The source holds these as a separate data set.

full-length sfGFP-VASH1–SVBP complex, sequence (Q7L8A9 whole entry): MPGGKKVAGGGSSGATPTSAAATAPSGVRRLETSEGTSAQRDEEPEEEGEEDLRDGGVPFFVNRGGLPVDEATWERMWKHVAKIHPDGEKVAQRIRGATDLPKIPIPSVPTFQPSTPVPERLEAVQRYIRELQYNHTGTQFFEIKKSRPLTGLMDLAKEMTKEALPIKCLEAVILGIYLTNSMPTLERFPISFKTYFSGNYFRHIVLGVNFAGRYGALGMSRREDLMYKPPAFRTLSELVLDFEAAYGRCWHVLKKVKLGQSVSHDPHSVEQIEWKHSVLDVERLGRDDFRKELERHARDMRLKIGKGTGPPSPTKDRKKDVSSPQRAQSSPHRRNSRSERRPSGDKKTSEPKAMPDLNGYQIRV
full-length sfGFP-VASH1–SVBP complex, sequence (Q8N300 whole entry): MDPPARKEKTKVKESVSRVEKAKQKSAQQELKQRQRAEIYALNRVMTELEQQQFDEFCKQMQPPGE
full-length sfGFP-VASH2–SVBP complex, sequence (Q86V25 whole entry): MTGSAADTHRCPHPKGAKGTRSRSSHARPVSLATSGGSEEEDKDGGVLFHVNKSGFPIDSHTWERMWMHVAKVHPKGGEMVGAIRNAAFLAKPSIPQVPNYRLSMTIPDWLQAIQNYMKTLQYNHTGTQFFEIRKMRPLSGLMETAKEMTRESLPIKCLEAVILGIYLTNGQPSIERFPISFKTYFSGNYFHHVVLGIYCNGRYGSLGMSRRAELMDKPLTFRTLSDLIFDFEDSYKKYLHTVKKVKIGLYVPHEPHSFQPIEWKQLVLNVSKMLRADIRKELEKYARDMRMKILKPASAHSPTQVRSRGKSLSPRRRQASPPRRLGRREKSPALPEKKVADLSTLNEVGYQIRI
full-length sfGFP-VASH2–SVBP complex, sequence (Q8N300 whole entry): as the sequence (Q8N300 whole entry) above
Taxol-stabilized microtubules enriched in detyrosinated HeLa tubulin (human (endogenous in HeLa) | not stated), sequence (P68363 1-450, chain 1 of 2): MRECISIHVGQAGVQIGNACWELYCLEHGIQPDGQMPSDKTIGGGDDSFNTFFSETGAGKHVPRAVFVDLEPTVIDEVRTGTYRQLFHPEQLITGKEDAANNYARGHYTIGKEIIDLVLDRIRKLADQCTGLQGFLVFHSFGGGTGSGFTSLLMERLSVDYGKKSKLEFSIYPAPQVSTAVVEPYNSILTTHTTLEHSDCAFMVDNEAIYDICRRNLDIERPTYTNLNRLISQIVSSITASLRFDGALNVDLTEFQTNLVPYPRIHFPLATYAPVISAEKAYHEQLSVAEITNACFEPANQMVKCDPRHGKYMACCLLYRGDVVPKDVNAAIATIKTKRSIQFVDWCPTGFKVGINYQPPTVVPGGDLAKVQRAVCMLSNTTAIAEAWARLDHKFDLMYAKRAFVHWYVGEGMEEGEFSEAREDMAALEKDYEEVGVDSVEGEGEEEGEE
Taxol-stabilized microtubules enriched in detyrosinated HeLa tubulin (human (endogenous in HeLa) | not stated), sequence (P07437 whole entry, chain 2 of 2, further chain): as the sequence (P07437 whole entry, chain 2 of 2, further chain) above

Turning to “full-length sfGFP-VASH2–SVBP complex (from UniProt Q86V25-1 1-355; Q8N300 1-66)”, the residence time τ in [1] is 0.9 s; in [2], 0.6 s; in [3], 3.9 s; in assay [4], > 12.9 s; in [5] it was > 11 s. Moreover, the binding frequency (min^−1.nM^−1.µm^-1) in assay [5] turned out to be 13. In [5], the mean covering of the microtubule surface during a 45 s movie came out at 25%.
Take “dead VASH1 core domain (sfGFP-VASH1 57–307 C169A) in complex with SVBP (from UniProt Q7L8A9-1 57-307; Q8N300 1-66)”: the binding frequency (min-1.nM^−1.µm^−1) in assay [5] was 70.7.
Regarding “catalytically dead full-length sfGFP-VASH1(C169A)–SVBP complex (from UniProt Q7L8A9-1 1-365; Q8N300 1-66)”, the binding frequency (min^−1.nM^−1.µm^-1) in assay [6] was found to be 86.4. In assay [5], the binding frequency (min-1.nM^−1.µm^−1) was 80.4; the binding frequency (min^−1.nM^−1.µm^-1) amounted to 132; the mean covering of the microtubule surface during a 45 s movie amounted to 82%; the residence time τ was 1 s and 1.2 s. This substance returned a residence time τ in assay [7] of 0.6 s.
With “full-length sfGFP-VASH1–SVBP complex (from UniProt Q7L8A9-1 1-365; Q8N300 1-66)”, the binding frequency (min^−1.nM^−1.µm^-1) came out at 3 in [3], 51.6 in assay [6] and 80.8 in [5]. Further, the residence time τ in assay [3] was 0.2 s; in assay [6], 0.8 s; in assay [4], 1.2 s; in [5] it was 0.5 s and 0.8 s; in assay [7], 0.5 s. Further, the mean covering of the microtubule surface during a 45 s movie in assay [5] turned out to be 75%.
Turning to “catalytically dead full-length sfGFP-VASH2(C158A)–SVBP complex (from UniProt Q86V25-1 1-355; Q8N300 1-66)”, in assay [5], the binding frequency (min^−1.nM^−1.µm^-1) worked out at 13.9, the mean covering of the microtubule surface during a 45 s movie came to 28% and the residence time τ was > 14.6 s.
As for “catalytically dead VASH2(Cys158Ala)–SVBP complex for cryo-EM (from UniProt Q86V25 1-355; Q8N300 1-66)”, the occupancy of the binding sites on the microtubule in [8] came to 50.9%; in assay [9], 40%.
